Fold slowing of dissociation against wild-type Nb80 data for one substance are collected here from patent US20180095098A1.

The experiment concerns the target Human β2-adrenergic receptor, amino-terminal FLAG epitope tag, truncated after residue 365, biotinylated, bound to the agonist BI-167107 (human) (UniProt P07550). The experiment in a line: SPR (Biacore T100, 25 °C), biotinylated BI-167107-bound receptor on SA chip, single-cycle kinetics. In general terms: Surface plasmon resonance follows binding to a sensor surface in real time, without labels.

Some results are limits rather than exact numbers.

“Nb6B9, high affinity variant of Nb80 (VHH)” came in with a fold slowing of dissociation against wild-type Nb80 above 10 fold.
